Assay results published in PMC5716544.

Biological target: functional streptavidin subunit with N-terminal cysteine and His-tag (Streptomyces avidinii) (UniProt P22629)
Experiment: refolding of mixed subunits, purification via the His-tag of one subunit, SDS-PAGE of heated and unheated samples; solubilized inclusion bodies mixed at a 1:10 ratio before refolding; tetramer purified via the His-tag of the cysteine-bearing subunit; gel of samples heated 5 min to 95°C (monomers) and of unheated samples (tetramers), room temperature

stoichiometry N: 3
Substance: functional SA subunit devoid of cysteine and His-tag (domain or fragment)
